PMC9352680, “A comprehensive thermodynamic model for RNA binding by the Saccharomyces cerevisiae Pumilio protein PUF4”

T1: PUF4 RNA-binding domain (Saccharomyces cerevisiae, UniProt P25339 537-888)
T1 sequence: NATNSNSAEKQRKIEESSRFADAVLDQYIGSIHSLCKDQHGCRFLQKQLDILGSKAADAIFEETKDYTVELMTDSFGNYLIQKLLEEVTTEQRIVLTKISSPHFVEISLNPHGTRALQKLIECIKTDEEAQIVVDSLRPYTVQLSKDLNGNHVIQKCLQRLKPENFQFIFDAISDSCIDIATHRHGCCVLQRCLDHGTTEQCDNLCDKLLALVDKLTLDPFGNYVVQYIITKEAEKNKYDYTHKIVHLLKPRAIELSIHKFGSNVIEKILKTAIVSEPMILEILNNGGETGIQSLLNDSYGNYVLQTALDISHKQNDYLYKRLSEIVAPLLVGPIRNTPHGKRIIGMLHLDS


Target: T1, PUF4 RNA-binding domain
Assay: Mg; RNA-MaP; 20 mM Na-HEPES pH 7.4, 30 mM KOAc, 0.75 mM MgCl2, 0.1% Tween-20, 5% glycerol, 0.1 mg/mL BSA, 2 mM DTT; 25 C; 0.0125-409.6 nM protein
Conditions: tags: N-His6-TEV cleaved; C-SNAP kept, Cy3B-labelled; label: tethered on chip by stalled RNA polymerase

| Binder | Kd |
| --- | --- |
| UCUCUUUGUAACUUUUCUCUU (ssRNA) [Ic_S1_P4E.1_K4.1_C4.1_H4.1_A4.1_[T5A]_[A6C]_F4.1_[A9T]_T4.1] | 58.3 nM |
| UCUCUUUGUUUAUGUCUCUU (ssRNA) [Ib_S1_P3E.1_K3.1_C3.1_H3.1_[A4T]_A3.1_F3.1_[A8G]_T3.1] | 1460 nM |
| UCUCUUUGUAAUGGCUCUCUU (ssRNA) [Ic_S1_P4E.1_K4.1_C4.1_H4.1_A4.1_[T5A]_[A6T]_[T7G]_F4.1_[T8G]_[A9C]_T4.1] | 2140 nM |
| UCUCUUUGUAAUGGUUCUCUU (ssRNA) [Ic_S1_P4E.1_K4.1_C4.1_H4.1_A4.1_[T5A]_[A6T]_[T7G]_F4.1_[T8G]_[A9T]_T4.1] | 764 nM |
| UCUCUUUGUAAUGCAUCUCUU (ssRNA) [Ic_S1_P4E.1_K4.1_C4.1_H4.1_A4.1_[T5A]_[A6T]_[T7G]_F4.1_[T8C]_T4.1] | 642 nM |
| UCUCUUUGUAAUGUGUCUCUU (ssRNA) [Ic_S1_P4E.1_K4.1_C4.1_H4.1_A4.1_[T5A]_[A6T]_[T7G]_F4.1_[A9G]_T4.1] | 105 nM |
| UCUCUUUGUAAUGUCUCUCUU (ssRNA) [Ic_S1_P4E.1_K4.1_C4.1_H4.1_A4.1_[T5A]_[A6T]_[T7G]_F4.1_[A9C]_T4.1] | 476 nM |
| UCUCUUUGUAAUGUUUCUCUU (ssRNA) [Ic_S1_P4E.1_K4.1_C4.1_H4.1_A4.1_[T5A]_[A6T]_[T7G]_F4.1_[A9T]_T4.1] | 95.2 nM |
| UCUCUUUGUAAUGUAUCUCUU (ssRNA) [Ic_S1_P4E.1_K4.1_C4.1_H4.1_A4.1_[T5A]_[A6T]_[T7G]_F4.1_T4.1] | 11.2 nM |
| UCUCUUUGUAAUCGCUCUCUU (ssRNA) [Ic_S1_P4E.1_K4.1_C4.1_H4.1_A4.1_[T5A]_[A6T]_[T7C]_F4.1_[T8G]_[A9C]_T4.1] | 1820 nM |
| UCUCUUUGUAAUCGAUCUCUU (ssRNA) [Ic_S1_P4E.1_K4.1_C4.1_H4.1_A4.1_[T5A]_[A6T]_[T7C]_F4.1_[T8G]_T4.1] | 1160 nM |
| UCUCUUUGUAAUCCCUCUCUU (ssRNA) [Ic_S1_P4E.1_K4.1_C4.1_H4.1_A4.1_[T5A]_[A6T]_[T7C]_F4.1_[T8C]_[A9C]_T4.1] | 1070 nM |
| UCUCUUUGUAUCUAUCUCUU (ssRNA) [Ic_S1_P3E.1_K3.1_C3.1_H3.1_A3.1_[A6C]_F3.1_T3.1] | 48.6 nM |
| UCUCUUUGUGUAUCUCUCUU (ssRNA) [Ib_S1_P3E.1_K3.1_C3.1_H3.1_[A4G]_A3.1_F3.1_[A8C]_T3.1] | 63.7 nM |
| UCUCUUUGUAAUCCUUCUCUU (ssRNA) [Ic_S1_P4E.1_K4.1_C4.1_H4.1_A4.1_[T5A]_[A6T]_[T7C]_F4.1_[T8C]_[A9T]_T4.1] | 484 nM |
| UCUCUUUGUAAUCAUUCUCUU (ssRNA) [Ic_S1_P4E.1_K4.1_C4.1_H4.1_A4.1_[T5A]_[A6T]_[T7C]_F4.1_[T8A]_[A9T]_T4.1] | 413 nM |
| UCUCUUUGUAAUCUGUCUCUU (ssRNA) [Ic_S1_P4E.1_K4.1_C4.1_H4.1_A4.1_[T5A]_[A6T]_[T7C]_F4.1_[A9G]_T4.1] | 76.5 nM |
| UCUCUUUGUAAUCUCUCUCUU (ssRNA) [Ic_S1_P4E.1_K4.1_C4.1_H4.1_A4.1_[T5A]_[A6T]_[T7C]_F4.1_[A9C]_T4.1] | 74.6 nM |
| UCUCUUUGUAAUCUUUCUCUU (ssRNA) [Ic_S1_P4E.1_K4.1_C4.1_H4.1_A4.1_[T5A]_[A6T]_[T7C]_F4.1_[A9T]_T4.1] | 56.3 nM |
| UCUCUUUGUAAUCUAUCUCUU (ssRNA) [Ic_S1_P4E.1_K4.1_C4.1_H4.1_A4.1_[T5A]_[A6T]_[T7C]_F4.1_T4.1] | 8.88 nM |
| UCUCUUUGUAAUAGCUCUCUU (ssRNA) [Ic_S1_P4E.1_K4.1_C4.1_H4.1_A4.1_[T5A]_[A6T]_[T7A]_F4.1_[T8G]_[A9C]_T4.1] | 941 nM |
| UCUCUUUGUAAUACCUCUCUU (ssRNA) [Ic_S1_P4E.1_K4.1_C4.1_H4.1_A4.1_[T5A]_[A6T]_[T7A]_F4.1_[T8C]_[A9C]_T4.1] | 713 nM |
| UCUCUUUGUAAUACUUCUCUU (ssRNA) [Ic_S1_P4E.1_K4.1_C4.1_H4.1_A4.1_[T5A]_[A6T]_[T7A]_F4.1_[T8C]_[A9T]_T4.1] | 603 nM |
| UCUCUUUGUAAUAACUCUCUU (ssRNA) [Ic_S1_P4E.1_K4.1_C4.1_H4.1_A4.1_[T5A]_[A6T]_[T7A]_F4.1_[T8A]_[A9C]_T4.1] | 642 nM |
| UCUCUUUGUUUAUCUCUCUU (ssRNA) [Ib_S1_P3E.1_K3.1_C3.1_H3.1_[A4T]_A3.1_F3.1_[A8C]_T3.1] | 1280 nM |
| UCUCUUUGUAAUAAUUCUCUU (ssRNA) [Ic_S1_P4E.1_K4.1_C4.1_H4.1_A4.1_[T5A]_[A6T]_[T7A]_F4.1_[T8A]_[A9T]_T4.1] | 172 nM |
| UCUCUUUGUAAUAUGUCUCUU (ssRNA) [Ic_S1_P4E.1_K4.1_C4.1_H4.1_A4.1_[T5A]_[A6T]_[T7A]_F4.1_[A9G]_T4.1] | 12.5 nM |
| UCUCUUUGUAAUAUCUCUCUU (ssRNA) [Ic_S1_P4E.1_K4.1_C4.1_H4.1_A4.1_[T5A]_[A6T]_[T7A]_F4.1_[A9C]_T4.1] | 36 nM |
